Measured values as given in paper PMC4067530, “Evidence for a DNA-relay mechanism in ParABS-mediated chromosome segregation” (eLife, 2014).

Experiments:
[1] = target: Caulobacter crescentus ParA R195E (DNA-binding deficient mutant) (C. crescentus); assay: SEC; +ATP: ParA freed of ATP (EDTA, buffer exchange), then mixed with 2.5 mM Mg-ATP, 10 min at room temperature; 50 µl at approximately 50 µM on Superdex 75 10/300 GL in 25 mM Hepes/KOH pH 7.5, 150 mM KGlu, 5 mM MgSO4, 2 mM Mg-ATP, 0.1 mM EDTA, 1 mM DTT; monomer to dimer
[2] = target: Caulobacter crescentus ParA (wild type) (C. crescentus); assay: as above
ParA = target: T1, ParA (Caulobacter vibrioides, UniProt B8GW31, R195E); assay: size exclusion chromatography (ATP-dependent dimerization); format: binding; details: 2.5 mM Mg-ATP, pH 7.5, 150 mM potassium glutamate; mutant does not bind DNA
T1 construct: full length, recombinant from E. coli BL21(DE3), pET24HT-ParA, His6 tag removed by TEV protease

[3] = target: Caulobacter crescentus ParA (wild type) (C. crescentus)
[4] = target: Caulobacter crescentus ParA (wild type) (C. crescentus); remark: listed apart in the source
[5] = target: Caulobacter crescentus ParB-His6 (wild type) (C. crescentus); assay: SEC-MALS; SEC-UV/LS/RI; purified His6-ParB on Superose 6 10/30 HR in 100 mM HEPES pH 7.4, 150 mM NaCl, 1 mM DTT, 0.3 ml/min; monomer to dimer
[6] = substrate: Nc1ncnc2c1ncn2[C@@H]1O[C@H](COP(=O)(O)OP(=O)(O)OP(=O)(O)O)[C@@H](O)[C@H]1O; assay: NADH-coupled ATPase assay (pyruvate kinase/lactate dehydrogenase); format: biochemical, Caulobacter vibrioides; details: 10 µM ParA, 1.5 mg/ml salmon sperm DNA, no ParB, 10 mM MgSO4, 150 mM potassium glutamate, pH 7.4, 30 °C
Source text: NADH-coupled ATPase assay (pyruvate kinase/lactate dehydrogenase) on ParA | ATPase activity was dependent on the concentration of ATP (Figure 1E), resulting in a KM

T1 sequence (B8GW31 whole entry R195E): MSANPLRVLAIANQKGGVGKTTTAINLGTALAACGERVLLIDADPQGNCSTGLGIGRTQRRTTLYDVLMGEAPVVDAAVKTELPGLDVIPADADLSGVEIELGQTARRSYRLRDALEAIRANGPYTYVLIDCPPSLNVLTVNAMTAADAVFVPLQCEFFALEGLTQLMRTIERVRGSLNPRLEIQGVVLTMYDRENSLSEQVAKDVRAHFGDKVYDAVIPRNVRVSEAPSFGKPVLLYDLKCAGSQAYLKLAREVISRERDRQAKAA

For “Caulobacter crescentus ParA R195E (DNA-binding deficient mutant) (enzyme)”, the stoichiometry N [1] was 2.

With “Caulobacter crescentus ParA (wild type) (enzyme)” the stoichiometry N [2] was 2.

For Nc1ncnc2c1ncn2[C@@H]1O[C@H](COP(=O)(O)OP(=O)(O)OP(=O)(O)O)[C@@H](O)[C@H]1O [ATP], the “size exclusion chromatography (ATP-dependent dimerization)” value (ParA) was “ParAR195E mutant (Figure 1C), which can still dimerize upon ATP binding (Figure 1A)”.

With “Caulobacter crescentus ParB-His6 (wild type) (natural protein)” the ParA (3 µM) ATPase activity against ParB concentration in the presence of DNA, Michaelis–Menten fit: apparent K (ParB) [3] was 80 µM, the ParA ATPase activity (NADH-coupled assay) with DNA, increase on adding ParB (60 µM) [4] was 10 fold and the stoichiometry N [5] was 2.

B1: ParA (Caulobacter vibrioides NA1000) (protein)
chain: MSANPLRVLAIANQKGGVGKTTTAINLGTALAACGERVLLIDADPQGNCSTGLGIGRTQRRTTLYDVLMGEAPVVDAAVKTELPGLDVIPADADLSGVEIELGQTARRSYRLRDALEAIRANGPYTYVLIDCPPSLNVLTVNAMTAADAVFVPLQCEFFALEGLTQLMRTIERVRGSLNPRLEIQGVVLTMYDRRNSLSEQVAKDVRAHFGDKVYDAVIPRNVRVSEAPSFGKPVLLYDLKCAGSQAYLKLAREVISRERDRQAKAA
notes: full length, recombinant from E. coli BL21(DE3), pET24HT-ParA, His6 tag removed by TEV protease
B1 showed a Km [6] of 150 µM and a kcat [6] of 0.00164 s⁻¹.
